In the DeepSol protein solubility set:

Assay: soluble on expression in E. coli; label from the status in PepcDB or PDB records

Row | Sequence | soluble on expression in E. coli
1 | MTTTIEVGMLGLGTVGSGVVERLTRSAAKIEQTQGIRLHLAAVAVNHLNAPRTVQLPIGTRLTDSLTNVVCDRKIQLVIEVMGTVATAKKAIVAALNQGKAVVTANKDLIATAGPELAALAKKQGCDLFYEASVAGGIPILRTLTDSYVTDNVQAVSGIINGTANYMLSAMATGQSYEQALATAQATGYAEADPTNDVAGIDAAYKLMILSRFAFGQELSLPQIAPTGITHLSASVCRLAAENGWQIKLLAQIQRHGSGLYCRVAPVAVPVDQPLSQINGVQNAVAVQSEAIGTSLYTGPGAGSTATANSVLNDVLVAAKHLINGYRMIRNQKRSVSLTVTRFDQLPQTYLGIGPVAPEAVKYYANEADFSVKTIADDCYQITGLSAVKRKKLRANLPLTLIPIAGTTDWKQVTENSITSPINVAI | not soluble
2 | MTTTPTLEVYLQPEQLKAALRKDATVGLTSNPKWLPPKYFYDARGSELFEQITALPEYFPTRTERELLRRYSGEIAEVTAPEILVELGSGSSEKTRLLLGAATRHGSLHTYVPQDVSVSALEGAAEQIGVEFPHLTVRGVVSDFTESLHHLPRGGRRTIAFLGGTLGNMVPAERAEFLSGIADVLEPGEHLLLGVGLVIDPAVLVPAYDDAAGVTAQFNRNVLQVLNTQLDADFPVDEFRHVALWDADNEWIEMRLEAERAMSIRVGELDLDVEFTAGEQLRTEISAKFTLDGIRRELAEAGFDVERTWTDPDDRFALVCAARN | soluble
3 | MTTVIVANDLVGFGKVALTSSLLPIMSACQTEVLPLPTVLLSSHTGEFDNIYVRYLTVDMQGFCGQWKRLDFRVDGLVGGYFKSEEELGLVSQCLTKKRFLFLLDPIMGDNGRLYQGFDRDYVEAMKDFCQQADVIIPNLTEAALLTGSPYLEEGSYDMTTIENLLRNLSRLGPRKVILTGISFETEKIGLAYFDKETNQVIYRMRKRYQSHFYGSGDLLTAILSAGYFHNLDFLKVCDLALDFLNKVLLFTLSSGRPLKYGLCYEPLYRLFI | soluble
4 | MTTVSVQIPAGWPATEERARAVQDELRARVVLDEPGPPPGTGRVTGVDVAYDDERDVVAAAAVVLDAGTLAVVAEATAVGRISFPYVPGLLAFREIPTVLAALEALPCPPGLVVCDGYGLAHPRRFGLASHLGVLTGLPTIGVAKNPFTFTHDDPDTPRGSTSPLLAGAEEVGRAVRTRDGVKPVFVSVGHRVGLGNACAHTLALTPAYRLPETTRRADALCRAALRDAAYRALEHHHHHH | not soluble
5 | MTVETQLNPTQPVNQQIYRILRRDIVHCLIPPGTPLSEKEVSTRFNVSRQPVREAFIKLAENGLIQIRPQRGSYVNKISLSQVQNGCFVRQAIECAVVRRAAAMITDNQCYQLAQNLHLQHIAIERKQIDDFFQLDDDFHQKLAQIADCQLAWDTIENIKATIDRVRYMSLDHVSPPEMLLRQHHDIFSALENRDGNAVESAMTQHLQEISESVQLIRQENSGWFSEE | not soluble
6 | MTVIETPVKSVICMTSLQLSNFIKLDALSHVVGITSTRHLFNKEMNERLKQGKTAKIGIEGNFDNEVIMSVNPDVIFISPFKRGGYDAMREVGIPLVPHLGYKEMTPLGQAEWIKFIGLFIGEEETANRKFAAIEKHYNELKERVAHVKKRPVLEHHHHHH | not soluble
7 | MTVKSQQQIIDSFKQANQDQLFQYYDSLTIDQQQEFIDQLSTIEEPAKLISTVEQAIQFSQTNSTSRNFTQLPNEQTASTLDLSKDILQNWTELGLKAIGNGEVAVLLMAGGQGTRLGSSAPKGCFNIELPSQKSLFQIQAEKILKIEQLAQQYLKSTKKPIINWYIMTSGPTRNATESFFIENNYFGLNSHQVIFFNQGTLPCFNLQGNKILLELKNSICQSPDGNGGLYKALKDNGILDDLNSKGIKHIHMYCVDNCLVKVADPIFIGFAIAKKFDLATKVVRKRDANESVGLIVLDQDNQKPCVIEYSEISQELANKKDPQDSSKLFLRAANIVNHYYSVEFLNKMIPKWISSQKYLPFHIAKKKIPSLNLENGEFYKPTEPNGIKLEQFIFDVFPSVELNKFGCLEVDRLDEFSPLKNADGAKNDTPTTCRNHYLERSSKWVIQNGGVIDNQGLVEVDSKTSYGGEGLEFVNGKHFKNGDII | soluble
8 | MTVPDRSEIAGKWYVVALASNTEFFLREKDKMKMAMARISFLGEDELKVSYAVPKPNGCRKWETTFKKTSDDGEVYYSEEAKKKVEVLDTDYKSYAVIYATRVKDGRTLHMMRLYSRSPEVSPAATAIFRKLAGERNYTDEMVAMLPRQEECTVDEV | soluble
9 | MTVPEEAQTLIGKHYRAPDHFLVGREKIREFAVAVKDDHPTHYSEPDAAAAGYPALVAPLTFLAIAGRRVQLEIFTKFNIPINIARVFHRDQKFRFHRPILANDKLYFDTYLDSVIESHGTVLAEIRSEVTDAEGKPVVTSVVTMLGLEHHHHHH | not soluble
10 | MTVRDKREKMTATREEFADAQQEFAAYAADFAADIETKRDVSSLLDAIDALRAEIEETGDAFDAYNQEFAAEVSHLQTEIGEQREALREMRDIFDAYAETFESDVEAKQDVSDLLAAIEDLRAEMDTTHEAFDAYTNEFVTDVAALRDVSDLLAAIEELQLEFGAVQAEFDDYTDDFDADIERFRNAVAEQRDAVAEYREEFHGVEVQAMLNAIADFQQEIDDFRAEFETTEESFDAFARDFYGAEASDSGDALETEAEAPDAGVPEQPAEESVETENEEAELEVVETETDTEDTDTGSIKEVEEELIIEEEIDTEDTREAENAVEEDEETEADEDAPEGMIQCLVCGEYYQAITEPHLQTHDMTIQEYREEYGEDMPLRPDDKA | not soluble
11 | MTVSRFLRNPEQVSVALRGKIAAALDELGYIPNRAPDILSNATSRAIGVLLPSLTNQVFAEVLRGIESVTDAHGYQTMLAHYGYKPEMEQERLESMLSWNIDGLILTERTHTPRTLKMIEVAGIPVVELMDSQSPCLDIAVGFDNFEAARQMTTAIIARGHRHIAYLGARLDERTIIKQKGYEQAMLDAGLVPYSVMVEQSSSYSSGIELIRQARREYPQLDGVFCTNDDLAVGAAFECQRLGLKVPDDMAIAGFHGHDIGQVMEPRLASVLTPRERMGSIGAERLLARIRGESVTPKMLDLGFTLSPGGSI | not soluble
12 | MTVTTKLIDYSDEEGNNFEGVLYIPKNVKQSKVPAVLIFPAFRGITHFEKDKGQQIAELGFVAFVADVYGKGVRPTERADAFATMGPLVSNRVEKLKPRLFAAVNTLKTFSEVDTSKIAAIGYCFGGLCVLDLARYNAGLKGVVSYHGTLKPIPDIALDPIVGTTVYVHHGDADFHIAKDQVDGFHEEMRTRQADFVFVSHANAVHAFTEPEADSFNAPGIGYNEKAAKRSWNATLDLFKEIF | not soluble
13 | MTWKPNVTVAAVIEQDDKYLLVEEIPRGTAIKLNQPAGHLEPGESIIQACSREVLEETGHSFLPEVLTGIYHWTCASNGTTYLRFTFSGQVVSFDPDRKLDTGIVRAAWFSIDEIRAKQAMHRTPLVMQCIEDYHAGKRYPLDILQYYD | soluble
14 | MTYGPESLSNQELLAILLRTGTKKEHVLNLSIKILNGLDSLADFRSLSLEELQEIEGIGQVRSVEIKAMLELSKRINQAEYNFKERILSSERLAKIMMSELGDKRQEHLIAIYLDTQNRVIKKQVIFIGSVRRSVAEPREILHYACKSMATSLIIVHNHPSGSTYPSENDLRFTEKIKRSCDDLGIVFLDHIIVGKKEYYSFREETDLV | not soluble
15 | MTYIALIGDIIQSKQLTDRSKVQKTLAAYLDDLNKTFAPYIISKLSLTLGDEFQGLFQVDTPIFHLIDLINHHMDIPIRFGVGVGSILTDINPDISIGADGPAYWHAREAIRYIHQKNDYGNTTLALRTGHHNQDDVLNSLLAAGDAIKANWRASQWEIFDTLLDLGIYEEYFDQQRLGKQLSLSSSALSKRLKSSHVKIYLRTRQSALNCLKQIKEETDD | not soluble
16 | MTYPTFALDDITSLHESAQVEFKLARGRDGQGQLPEDIWATYSSFANTLGGEIILGVREDRGHFTIEGIPNPQPVLQEFWEIIDNPSRVSCNILAISDVQLIEIMNKKLIRIRVPLAPEHLKPVFIGTDVYTGSYFRVGDADMHASRKQVMQMLRRAHHCNKLFKARLEHHHHHH | not soluble
17 | MTYRVKIHKQVVKALQSLPKAHYRRFLEFRDILEYEPVPREKFDVIKLEGTGDLDLYRARLGDYRVIYSVNWKDKVIKILKLKPRGRAYK | soluble
18 | MTYTGSIRCEGDTWDLASSVGATATMVAAARAMATRAANPLINDQFAEPLVRAVGVDVLTRLASGELTASDIDDPERPNASMVRMAEHHAVRTKFFDEFFMDATRAGIRQVVILASGLDSRAYRLAWPAQTVVYEIDQPQVMEFKTRTLAELGATPTADRRVVTADLRADWPTALGAAGFDPTQPTAWSAEGLLRYLPPEAQDRLLDNVTALSVPDSRFATESIRNFKPHHEERMRERMTILANRWRAYGFDLDMNELVYFGDRNEPASYLSDNGWLLTEIKSQDLLTANGFQPFEDEEVPLPDFFYVSARLQRKHRQYPAHRKPAPSWRHTACPVNELSKSAAYTMTRSDAHQASTTAPPPPGLTG | soluble
19 | MVAEITAPKSMGKVLGYNFSKVTAGNASVILTSSMSVDANGETNFERALTDMDMRIPSGIRTKKTVFHCSLNPHPDDRLTTEQLQDIAREYMEKMGYGKQPYIVFKHNDIAREHIHIVSLRVDSYGKKLPYKFEARRSKRITDELERKYGLIPSGNRRSRHETHAENVLKTADVKQGDVRRQIAAVVRAVLKRYAFRSLGEMNLLLARYHIVAEEVRKEYKGKRYDGLVYAITDDAGEKRMIPLHAGKIGRGTGYAAVVRHFEKSKALIKEKAPMLRNAIIEVMQSSPDKERFSEEMKKRGIDVHIRQNEQGRIYGITFISDEAGIAANGSRLGKGYSAHVFNDYFLGGENPFLDYRRQEIRELPTVRSAPEMLPEAETGDDCYDEPVRTDESGIVVHGIDYKELAFQRKLRNRRHKQDITGKRRT | not soluble
20 | MVAGNSAHEMVSILNQNRTARKLGKLNESPGLGCMALQYVELCEGNCNVNNTLSCEHPEDDFTQVFAPNCGVELPTFGTITGHILGCSSKYAAPEVAFSDILFRDSSALSVLRNRSHTEVGVGMARLHKGTFFWCLLFSDGVKNSSFVLEDNGRGIKQRTGCYSGSAFPCSSNAHMICMRLLNSFLGLLFSSFCLFEKHLKF | soluble
21 | MVCFGVGSGGTVTGVGRYLRAQKQNIGVYPVEPFESSVLSGFPRGPHKIHGIGAGLIPGNVDRSLFTEVLRVKSEDAMKMARRLADEEAILGEISSGANVVAAVELACRPENIGKLIVTTVNSFAERYFSTELYSTLLSEVSKLPISTDEQAVDIAKKYLGL | not soluble
22 | MVDFKLSPSQLEARRHAQAFANTVLTKASAEYSTQKDQLSRFQATRPFYREAVRHGLIKAQVPIPLGGTMESLVHESIILEELFAVEPATSITIVATALGLMPVILCDSPSLQEKFLKPFISGEGEPLASLMHSEPNGTANWLQKGGPGLQTTARKVGNEWVISGEKLWPSNSGGWDYKGADLACVVCRVSDDPSKPQDPNVDPATQIAVLLVTRETIANNKKDAYQILGEPELAGHITTSGPHTRFTEFHVPHENLLCTPGLKAQGLVETAFAMSAALVGAMAIGTARAAFEEALVFAKSDTRGGSKHIIEHQSVADKLIDCKIRLETSRLLVWKAVTTLEDEALEWKVKLEMAMQTKIYTTDVAVECVIDAMKAVGMKSYAKDMSFPRLLNEVMCYPLFDGGNIGLKRRQMQRVMALEDYEPWAATYGSSKVDKSRL | soluble
23 | MVDNLIKYIHKSDVAIVVLHEIYGINSFIEDVCQKYYKYGYDVFCPELLGEKRVFPYSKVQEAYDFFINNVGFDIYKKVEKLINDLKSEYKYVFVAGYSVGATIAWRCSEDSFCDGIICCYGSRIRDYMDVIPKCPTLLVFAKHDSFDVDSISCQLSRKQNIQIEILDANHGFIDRYSNNYSDIQTKVFTIKEKSFLSKCLA | not soluble
